Data as given in article PMC8703390, “Humanization, Radiolabeling and Biodistribution Studies of an IgG1-Type Antibody Targeting Uncomplexed PSA for Theranostic Applications” (Pharmaceuticals, 2021).

B1: murine 5A10 monoclonal IgG1 (antibody, V domains shown)
VH: EVQLVESGPGILQPSQTLSLTCSFSGFSLSTTGMGVSWIRQPSGKGLEWLAHLYWDEDKRYNPSLKSRLTISEDSSRNQVFLKITSVGPADSATYYCARKGYYGYFDYWGQGTALTVSS
VL: DIVMTQSQKFMSTSVGDRVSVTCKASQNVNTDVAWYQQKPGQSPKALIFSTSYRSSGVPDRFTGSGSGTDFTLTITNVQSEDLAEYFCQQYSNYPLTFGAGTKVDLN
notes: heavy chain variable domain of m5A10; murine IgG1 heavy chain constant region; light chain variable domain of m5A10; light chain constant region; Murine IgG1; also called m5A10; parental murine antibody m5A10; source: provided by the University of Turku (Finland), prepared as previously described [8]
B2: murine 5A10 conjugated with p-SCN-Bn-CHX-A''-DTPA (antibody, V domains shown)
VH: B1 VH
VL: B1 VL
notes: as the heavy chain variable domain of m2; murine IgG1 heavy chain constant region, as in m2; as the light chain variable domain of m2; as the light chain constant region of m2; Murine IgG1; also called m5A10-DTPA; DTPA-m5A10; source: provided by the University of Turku (Finland); conjugated with p-SCN-Bn-CHX-A''-DTPA and separated from free chelate on a NAP-5 column
B3: humanized 5A10 conjugated with p-SCN-Bn-CHX-A''-DTPA (antibody, V domains shown)
VH: QVTLKESGPALVKPTQTLTLTCTFSGFSLSTTGMGVSWIRQPPGKALEWLAHIYWDDDKRYSTSLKTRLTISEDSSKNQVVLTMTNMDPVDTATYYCARKGYYGYFDYWGQGTLVTVSS
VL: DIQMTQSPSSLSASVGDRVTVTCRASQNVNTDVAWYQQKPGKAPKALIFSTSYLQSGVPSRFSGSGSGTDFTLTISSLQPEDFATYYCQQYSNYPLTFGQGTKVEIK
notes: as the heavy chain variable domain of m1; IgG1 heavy chain constant region, as in m1; as the light chain variable domain of m1; as the light chain constant region of m1; not described; IgG1; 111In labelling used the 3:1 conjugate, 177Lu labelling the 12:1 conjugate; also called h5A10-DTPA; DTPA-h5A10; source: HEK293 cells, transfected; purified by Protein G chromatography; conjugated with …
B4: humanized 5A10 IgG1 (antibody, V domains shown)
VH: B3 VH
VL: B3 VL
notes: heavy chain variable domain of h5A10; IgG1 heavy chain constant region; light chain variable domain of h5A10; light chain constant region; not described, only the plasmid name p5A10VlhDhK hints at human kappa; IgG1; Light chain constant region probably human kappa (surmised from the plasmid name and the Vk1 template); also called h5A10; humanized antibody h5A10; source: HEK293 cells, transfected; …

What follows are binders tested against T1, human kallikrein-2 (hK2) (Homo sapiens, UniProt P20151) (assay: SPR; control hK2 antigen; data not shown). Settings: both partners purified.
T1 construct: human kallikrein-2 (hK2), the human protein most similar to PSA; source: bought: Innovagen AB (ELISA)
T1 sequence (P20151 19-261): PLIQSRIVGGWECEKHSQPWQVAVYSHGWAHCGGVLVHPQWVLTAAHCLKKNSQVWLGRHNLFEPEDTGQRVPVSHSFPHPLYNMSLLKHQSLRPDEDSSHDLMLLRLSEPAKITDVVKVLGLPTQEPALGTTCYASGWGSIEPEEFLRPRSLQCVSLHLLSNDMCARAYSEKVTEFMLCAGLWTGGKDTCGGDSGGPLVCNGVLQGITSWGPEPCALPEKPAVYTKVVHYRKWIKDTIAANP
B1: no binding (tested: 100, 50, 25, 12.5 and 10 nM).
B2: no binding (tested: 100, 50, 25, 12.5 and 10 nM).
B3: no binding (tested: 100, 50, 25, 12.5 and 10 nM).

What follows are binders tested against T1, human kallikrein-2 (hK2) (assay: ELISA; wells coated with PSA or hK2 (100 uL at 1 ug/mL) overnight; h5A10 dilution series from 5 ug/mL in four-fold steps, 1 h at RT; detected with goat anti-human-AP and pNPP, absorbance at 405 nm). Settings: both partners purified.
B4: no binding (tested: 5 µg/mL).

What follows are binders tested against T2, prostate-specific antigen (PSA), uncomplexed free PSA (Homo sapiens, UniProt P07288) (assay: SPR; Biacore 2000; PSA immobilised on a CM4 chip by amine coupling (900-1000 RU); antibodies at 100, 50, 25, 12.5 and 10 nM in HSP-buffer flown at 30 uL/min; association 4-5 min, dissociation up to 480 min; bi-exponential fits to binding and dissociation curves; KD = Koff/Kon). Settings: both partners purified.
T2 construct: prostate-specific antigen (PSA), human kallikrein; uncomplexed (free) form; also called fPSA; source: bought: Merck (ELISA)
T2 sequence (P07288 25-261, one chain of several): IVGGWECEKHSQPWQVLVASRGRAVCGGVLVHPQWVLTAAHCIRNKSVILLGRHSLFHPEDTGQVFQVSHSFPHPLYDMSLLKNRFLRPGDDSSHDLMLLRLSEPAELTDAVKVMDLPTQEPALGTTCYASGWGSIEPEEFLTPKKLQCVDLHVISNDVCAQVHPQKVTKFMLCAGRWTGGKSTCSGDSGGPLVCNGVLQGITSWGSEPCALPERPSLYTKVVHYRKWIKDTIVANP
Work on B1 yielded a Kd of 0.022 nM, a koff of 5.4e-06 s⁻¹ and a kon of 250000 M⁻¹ s⁻¹.
Binder B2 has a Kd of 0.023 nM, a koff of 6.3e-06 s⁻¹ and a kon of 270000 M⁻¹ s⁻¹.
Binder B3 has a Kd of 0.012 nM, a koff of 4.8e-06 s⁻¹ and a kon of 390000 M⁻¹ s⁻¹.
With B4 the Kd was 0.0077 nM, the koff was 4.8e-06 s⁻¹ and the kon was 620000 M⁻¹ s⁻¹.
